Test results taken from the supplement of paper PMC9170038.

System: K4 kissing-loop RNA reporter
Test: apparent KD of K4 kissing-loop reporter; higher = weaker reporter binding
Conditions: Eterna round: R107
Procedure: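 RNA-MaP round R107: designed RNA switches with theophylline, tryptophan, arginine or FMN aptamers are transcribed on-chip within common flanks. They are titrated with a labelled K4 kissing-loop RNA reporter in RNA-MaP buffer (100 mM Tris pH 7.5, 80 mM KCl, 4 mM MgCl2), without ligand or with the indicated ligand. Median apparent KD per design.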

[1] = input ligand: theophylline 20 uM
[2] = input ligand: tryptophan 2.4 mM
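Note: bound reporter read as fluorescence of individual clusters on recovered sequencing chips by microscopy, with normalized cluster intensities fitted with a binding model.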

Sequence	apparent KD of K4 kissing-loop reporter (input ligand: FMN 200 uM) [nM]	apparent KD of K4 kissing-loop reporter (input ligand: arginine 13.2 mM) [nM]	apparent KD of K4 kissing-loop reporter (input ligand: none) [nM]	apparent KD of K4 kissing-loop reporter [1] [nM]	apparent KD of K4 kissing-loop reporter [2] [nM]
CCGGCCCAGCCGGAUACCAGUGCGCCGCAGGGAACGGCGGGCCCAGAGUGAUGUUCGGGACACCCUUGGCAGCCGCCUGGGUCCU [#2 Same State - Theophylline B Attempt #29 (HarryS)]	850	662	718	767	864
AAAGAUGCGUCGGCCGCCACUGUGAUCUACGAAAGUAGUAUGUAGAUGCAGUGAUGUUGCAUUUUCAGGACCGGGACGUAAGAUG [3rd]	447	362	321	496	211
GAGUCCUUUGAAGGAUAUAGACGUCCCGAUCACUCAGUUGGCGAGCGAGUGAUGUUCGUUCCUAUACUAGAAGGUCAAAGCCUCC [theeternabot_sameState_KL_FMN_B_32]	225	193	211	204	205
CACCAUGAAUUCUCUAGGAGUGAUGUUUUUCGAGGACCGGUACGGCCGCCACUCGGACGAGGACCCUGGGAGCGGCGAAGCGGCU [nigmullin]	235	104	238	246	150
UUUUUGGAGAAUUAUAGUGAUGUUAUGAAGGAGGAUAUCUGGAGAUGGAGAAGGCCUAGUGGCUCAGCCCUCGCGGGUGGGUGGG [ExFMNA.aD]	667	518	456	530	426
AAAGGCAUAGCCCGAGUGAUGUUCGACGAUACCAGCCUCGAUAGAGGCCCUUGGCAGCGUAAAUGAUCAUGAAGCCAAGGAAUAA [whbob_Ex_Theo_A_th68]	340	303	391	816	422
CUCGAGUGAUGUUCGAUUAUUUAUACAGAUACCAGUGAAUUUUAACACCCUUGGCAGCUGGUAGUAUCGUUGUAAUUUACACAAG [JR_ExcTheophyA_Sub004]	99.8	163	116	168	87.9
UCUGUUGUAUAUGAUACCAGCAGUGAGAGAUGAGAAGUAUAGUGAUGUUAUAUGAGAGAAUGCCCUUGGCAGCGUGUGCGUGUGG [SSTheophylB.aC]	105	98.3	83.2	100	76.9
UUUUAAAUGUCUGAUACCAGAGAAAAUAUAUGUAGUGAUGUUAUAUACAAAAUAAAUAAGCUCCCUUGGCAGCAGUAUUAAUUUU [AstrosExc-TheB#6]	679	632	863	725	529
UGAUACCAGACUGAUACCAGCGAGUGAUGUUCGCUGAAAUCAGGGUCAAAGACCCUGUCUCGCCCUUGGCAGCAGUCUGGUAUCU [TheoBX 20 #SwitchBubble #StaticStem]	147	120	133	185	128
CUCGUGGGUUUGAGAGGGCUUGUGGGAAGUGAGGAUAUUUAGGGAGAAAGAAGGCACUAUAAAAUAUAGUGAUGUUAUAUAAGGG [SSFMNA.M]	494	138	188	751	347
ACGUCACGUAUACUGGUGGUUUCGAUCGAUACCAGUAGCGAGAGUUACCCUUGGCAGCGACAUGAGUGAUGUUUAUGUAUGAUGA [#13 K4 Theophylline A Exclusion]	639	551	593	560	492
AAGCAUUCUUCGGAAUGCAGACCCGCUGAGGAGGAUAUGACGAAAGUCAGAAGGUUUCAGUGAUGUUGAGGCCUCCUCAAUGGUC [whbob_Ex_FMNA__2th182]	305	256	293	285	291
AAAAGCAGAAAGACGCAUUAAAGAACCGAAGGAGCGCGGAAUUACGCAGGUAGGUCGCGGGAUAAGCGAGUGAUGUUCGCGAAAG [Arginine A Same State; Euphoria Solution]	60.7	105	72.1	89.5	53.6
UGUCAUUGGUCGGCCGCCACUUGAAGGUCAAAGACCAUAGAGUGAUGUUCUAAGACGAAAGUCACAAGGACCGGGACCGAUGACU [TrypBS 3 #SwitchBubble #K4Middle]	361	134	133	265	607
GGCAGUGAUGUUGCCAGUGGCAGAUGCGAAGGAGCGUGGUGAGACACAGGUAGGUCGCGCAUUGAAAUUGCUGUCACUAAAAUGC [#3]	338	346	326	369	261
UCGACUGUGUCGGCCGCCACUGGUAUAAACGGACUAUAACGACAUGAGUGAUGUUCAUGUUCGUCUAGGACCGGGACACAAUGUA [Tryp B Ex t3]	102	81.8	96.7	81.7	90
UGGUUUAACUGAAGGAGCGGCAAUUGAUAAGUAGAUAUAGUGAUGUUAUAUAAGAUAGAGAGCCAGGUAGGUCGCAGAGGUAUUU [ExArgB.P]	215	218	212	248	197
